Measurements as given in the RNAGym collection of RNA variant scans (doi:10.7554/elife.80360).

B1: HDV Ribozyme (parent)
chain: GGCCGGCAUGGUCCCAGCCUCCUCGCUGGCGCCGGCUGGGCAACAUUCCGAGGGGACCGUCCCCUCGGUAAUGGCGAAUGGGACCCA

Variants of: B1
Experiment: self-cleavage, relative activity (ratio to wild type); higher = more cleavage; co-transcriptional

Variant	self-cleavage
U37G A87G	0.0455
C4U G67U	0.855
G67A A70U	0.776
C33G G73C	0.253
G40U G68U	0.858
G2A G6C	0
G11C G76U	0.604
G2C U12G	0.0426
C7G G34U	0.0504
G34U A77C	0.0678
G73C C86A	0.641
G59C A83G	0.917
C4A C57A	0.541
C63A G74U	0.515
C32U U60C	0.7
G11U C33G	0.0594
C14A G81A	0.911
C30G G52U	0.02
G1C U79C	0.177
G17A C33A	0.0875
G5A U72G	0.147

Variant	self-cleavage
C66U C75U	0.173
C24U C30G	0.122
C41G G80A	0.431
U79C A83C	0.374
C21G G81C	0.0504
G53A G59C	0.872
A51G	0.948
C18A A78C	0.0978
C7A A51C	0.609
C14A C49U	0.7
C19U C58U	0.126
G39C U46A	0.19
G17C U46C	0.0791
A16G U79C	1.08
C61U G68C	0.581
C41U A87G	0.961
G11C C85A	1.18
C66A C86A	0.769
G34A G35C	0.0378
G28A G29A	0.0978
U37G C58A	0.145

Variant	self-cleavage
U69G A83U	0.465
C14G G82U	0.196
C14A G73U	0.13
U37C C62A	1.05
G5C U20G	0
U46A C61G	0.808
G5U C86U	0.554
C26G A78G	0.633
G6U G81U	0.154
U46C G67C	0.469
G10A G40C	0.302
G50A A77C	0.227
C14A G25A	0.141
C24G C62G	0.0415
U9C G10U	0.731
A70U C86A	1.02
G35A G50C	0.346
G31U G50A	0.674
U72A G81C	0.0898
C75A G82A	0.151
G11A A16G	0.323

Variant	self-cleavage
U9G C22G	0.208
C22G C64G	0.0723
C14U U27C	0.723
A8G C41A	0.914
G35C G82C	0.0519
C24G A83U	0.141
G50C G52C	0.554
U47A G80C	0.138
C41G C61U	0.886
G55A G67U	1.12
A43U C64A	0.397
C44U A45C	0.739
C15U G29C	0.0449
A42G A56C	0.54
G1A G81A	0.0462
G29A A83G	0.0611
C21G C49U	0
A8G C57G	1.27
G34U G55A	0.114
G29U G34U	0.0519
U12C C86G	0.104
